Patent US20240115742A1, “FLUORINATED FIBERS FOR MULTIMODAL 1H AND 19F MRI, ULTRASOUND, FLUORESCENCE DETECTION AND CONFORMATIONAL AND TEMPERATURE DETECTION BY 19F MRS” (New York University, priority 2022, published 2024)
Several values for one entry are separate records, joined by “and”; a condition that tells them apart may be missing. Identical values can stand only once. Like-named read-outs stand apart in the source and are kept apart here. Square brackets hold non-standard residues; d marks the D form. Ends that are not written are not given here. LTF = trifluoroleucine

Experiments:
[1] = Small angle X-ray scattering of Q5; type: physicochemical
Procedure: Small Angle X-ray Scattering (SAXS). SAXS was employed to measure interparticle interactions, structure, and shape of Q5 since it was capable of gelation in the instrument holder within 24 h. SAXS experiments were performed at the National Synchrotron Light Source-II (NSLS-II) Beamline 16-ID (LiX) at Brookhaven National Laboratory.
Small Angle X-ray Scattering (SAXS). All measurements were taken within 12 h of concentration of the protein from the dialysis bag. To study Q5 as an isolated particle, 150 μM (˜1 mg/mL) protein and dialysis buffer (50 mM Tris 500 mM NaCl pH 8.0) was loaded into a flow cell and measured in the q range […] to 3.19 Å^−1. The Q5 protein transition from solution to hydrogel was measured by incubation at 4° C. of 3 mM of Q5 protein in an eight-slot holder capable of loading 30 μL of each sample. Between measurements, the holder was returned for incubation at 4° C. Independent slots were used to load six samples of the Q5 hydrogel in solution including one for the empty cell and one for the dialysis buffer. Each slot was measured once incrementally over a 24 h incubation window to negate the impact of radiation (except for the measurement made at 24 h which was measured from the previous time point sample due to sample error in the last slot holder, however, a negligible impact of radiation was observed). Similarly, Q5 hydrogel measurements made at 3 mM and 4° C. were measured in the q range 0.005 Å^−1 to 3.19 Å^−1. Kratky plots were calculated by Guinier analysis of Rg and I(0) values. Flory exponents were calculated using MFF fit by Sosnick group online tool. Pair distance distribution function, P(r), was calculated using primus (ATSAS software).

[2] = test system: type 2 mouse diabetic wound; experiment: Diabetic mouse wound model; type: in vivo; settings: vs exosomes alone and untreated mice
[3] = Curcumin binding by fluorescence spectroscopy; settings: 15 μM protein, 1% v/v DMSO
Procedure: Drug Binding. Protein variants were bound to curcumin (CCM) in increasing CCM:protein ratios at 1:1 to 10:1. Protein was diluted to a final concentration of 15 μM before CCM solubilized in DMSO was added to the protein sample at a final 1% v/v DMSO. Samples were incubated on a thermomixer for 30 min at 300 rpm in the dark at 4° C. Samples were then removed and 300 μL of each sample was added to a 96-well solid black plate. Protein variants were excited at 420 nm and emission was read at 520 nm using a BioTek Synergy H1 microplate reader at RT. The baseline spectra of CCM, at 15-150 μM in 50 mM PB pH 4.0 containing 1% v/v DMSO, was subtracted from the fluorescence intensities of the protein-CCM at corresponding concentrations. Resulting normalized relative fluorescence intensities were analyzed using Specific binding kinetics in GraphPad Prism (GraphPad Software).
Curcumin Binding. CCM was bound to Q2LTF. […] Samples were loaded onto a 96-well black plate and excited at 420 nm and emission was read at 520 nm using a BioTek Synergy H1 microplate reader at room temperature (RT). Normalized relative fluorescence intensities were calculated and analyzed in Graphpad Prism (GraphPad Software). Binding affinity was calculated using the specific binding kinetics equation.

[4] = measured in Q previously; cited from earlier work
[5] = previous studies, cited from earlier work
[6] = Q as previously described; cited from earlier work

Question: What does the source list for “Q5: Q hydrogel variant from Rosetta Monte Carlo search, SEQ ID NO: 14 (MRGSHHHHHHGSIEGRVKEITFIKKTIEQIAEEMKEINKAIHDIRHALENISKK) [Protein Q5]”?
Answer: P(r) distribution centre ([1]; 150 μM, 0 h at 4 °C): 22.5 Å; average step-size increase of P(r) peaks ([1]; 3 mM, 24 h at 4 °C): 39.1±4.2 Å; cylinder length ([1]; assuming cylindrical shape): 6.8±0.4 nm; diabetic wound closure [2]: faster time to closure

Question: For “Q2LTF: protein-engineered fluorinated coiled-coil fiber, Q2 with trifluoroleucine, SEQ ID NO: 20 (MRGSHHHHHHGSIEGRVKE[LTF][LTF]F[LTF]KKTAEQM[LTF]EE[LTF]KETNKA[LTF]HDVRH[LTF][LTF]ENQSK[LTF]; ends and bridges not checked) [Protein Q2LTF]”, which Kd [3] is on record?
Answer: 0.06 μM:μM [protein:CCM]

Question: Which protofibril diameter [4] does the source give for “Q: rationally designed pentameric coiled-coil derived from C, SEQ ID NO: 23 (MRGSHHHHHHGSIEGRVKEITFLKNTAPQMLRELQETNAALQDVRELLRQQSKL) [reference compound]” here?
Answer: 3.5±0.5 nm

Question: And the melting temperature ([5]; 50 mM Na2HPO4 pH 4.0)?
Answer: 55.3 °C

Question: And the melting temperature ([5]; 50 mM Na2HPO4 pH 10.0)?
Answer: 46.4 °C

Question: And the UCST [6]?
Answer: ~16 °C and 16.2 °C
